# B1: Q8U0N8, uncharacterized protein of unknown function from Pyrococcus furiosus (natural protein, UniProt Q8U0N8 1-392, looked up)
# chain: MSESINNITKPKERRDFVVMAGMRKDGTIDFIKVYALNEKLAIEVLEAFLKENNIHPSDFIVIQRGYEDVKDKKAITTRSEEELSAMLGRLGLRLVSNGVLYTDGIDKLYQITAISRELFESLQKEKREIFEDVQEKITFNFSKVDLPEKYVKKLRLLELMEDTIIFNMAELEIPNLLKAIVEGTVLIPRFLEKEDLIIRIFDEELHEYRGSYFDKVLIKPPIIHWDFYLDSLEDFSFKKVEESIYIAPLFLRATGGFLILTEPPEDLVKTLLKLKKRGEVRTILEGKRITIPINFTLIVDTRHPERYAGLKFPIRINLPPLDDETFLKVLETNLGITPPTEIVRIFPPDYKTFLGVELIKNLFEKLKLTEKGKDEVSLLKEAATIITGGTP
# B2: cysteine tRNA ligase from archaea (Q8U227) (enzyme, P. furiosus, UniProt Q8U227 1-477, looked up)
# chain: MLKVYNTLTKQKEEFKPLREGEVKMYVCGPTVYDYPHLGHARTYIAFDVIRRYLEHKGYTVLMVMNFTDIDDKIIKRARETGEDPKELAERFIKIFLEDMEALKVKPADIYPRVTDHIDDIIEFIGKLKEKGYAYEGSDGIYFEVKKFPEYGKLSGVKIEDLQKGARVEPGEGKKNPEDFALWKKAKPGEPKWDSPWGEGRPGWHIECSVMSSKYLGESFDIHGGGNDLIFPHHENEIAQSEACFGHEWVKYWLHTGFVMVKGEKMSKSLGNFVTIRELLKRYEPEVIRFFVLQKHYRSPLEYTEEGLQHAKNNLQRLYNTLENIRVALRNAEISYTWGELEFKTYEIIREGKRKFYEAMDDDFNTAEALKAVFEVANAINKYLTEANKPKESILRKALEFFKIVSEVFGVFEDYFREETKEREESEKLIELLVEVRKQLRKEKRYELADMIREELKKLGIQLEDRGSETTWKRIIT
# What was measured:
# cryo-EM structure = target: the molecule itself; assay: cryo-EM structure
# mass photometry = target: the molecule itself; assay: mass photometry
Protein,stoichiometry N (cryo-EM structure),stoichiometry N (mass photometry)
B1,6,–
B2,–,2

# Reference: paper doi:10.1101/2023.06.09.544317 (bioRxiv, 2023)
